Results taken from patent publication US8106168B2, “Metalloproteinase binding proteins” (Dyax Corp., priority 2005, dated 2012).

Experiments:
MMP-7 = biological target: T1, MMP-7 (Homo sapiens, UniProt P09237); assay: Cross-reactivity of anti-MMP-14 IgGs, enzymatic activity: MMP-7; assay type: biochemical; details: 1 μM anti-MMP-14 IgG
T1 sequence (P09237 95-267): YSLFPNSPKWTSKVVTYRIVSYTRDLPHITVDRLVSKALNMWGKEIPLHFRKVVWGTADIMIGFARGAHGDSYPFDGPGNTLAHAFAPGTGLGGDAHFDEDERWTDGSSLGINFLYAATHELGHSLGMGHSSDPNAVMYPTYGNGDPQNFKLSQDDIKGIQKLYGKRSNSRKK
Description: The cross-reactivity of exemplary anti-MMP-14 IgGs and Fabs with other human MMPs and TACE (TNF-alpha converting enzyme) was examined. MMP and TACE enzymatic activity was monitored in the absence and presence of 1 μM anti-MMP-14 IgG antibody. Inhibition (Y) of activity ranged from approximately 50-80% of the reaction rate observed in the absence of antibody. “X” indicates no inhibition was observed. Cross-reactivity was not determined for MMP-17 because protein activity could not be detected.
For the studies summarized in Table 12, six anti-MMP-14 IgGs were selected for cross-reactivity testings: M0043-G02, M0040-A06, M0037-D01, M037-C09, M0038-F01, M0033-H07.

[1] = test system: Streptococcus cell wall (SCW)-induced arthritis, knee joints; assay: SCW-induced arthritis, joint swelling; assay type: in vivo, mouse; details: 2, 6 or 10 mg/kg IP at day 13, 16, 20 and 23; technecium uptake
Description: Antigen-induced arthritis, a model of rheumatoid arthritis, was induced by intraarticular injection of Streptococcus cell wall (SCW, […]) into the knee joints of C57B16 mice at day 0, 7, 14 and 21.
Mice were assorted into groups of six animals each and treated (by IP injection) with M0038-F01 (2, 6, or 10 mg/kg), a control isotype-matched antibody (control, 20 mg/ml), or etanercept (ENBREL®, 5 mg/ml) at day 13, 16, 20, and 23. Joint swelling (measured by technecium uptake) was measured at day 15, 16, 22, 23 and 28.

[2] = test system: activation of pro-MMP-2 by MMP-14 in PMA-activated HT-1080 cells; assay: Gelatin zymogram, pro-MMP-2 activation in HT-1080 cells; assay type: cell-based, human; details: gelatin zymography of conditioned media after 3 days; antibodies 10 μg/ml, GM6001 10 μM
Description: The ability of anti-MMP-14 IgGs to inhibit the activation of pro-MMP-2 by MMP-14 was examined by gelatin zymogram experiments performed with PMA-activated HT-1080 cells. M0033-H07 and M0038-F01 were tested for their ability to inhibit MMP-14 in this assay. HT1080 cells (well-known to express MMP-14 and MMP-2) were seeded at 5×10^5 cells/well at Day 0. […] HT-1080 cells cultured in the presence of 20 ng/ml of PMA were used as a positive control.
After 3 days of incubation, conditioned media were collected and gelatinolytic activities were analyzed by gelatin zymography as described previously (Maquoi et al, J Biol Chem 2000; 275:11368-78). When HT-1080 cells are activated with a phorbol ester, pro-MMP-2 is activated into MMP-2 (lane 1).

[3] = test system: B16F1 melanoma lung metastases; assay: B16F1 melanoma metastasis model, tail vein injection; assay type: in vivo, mouse; details: 10 mg/kg Q2d IP, 14 days; lungs taken day 15
Description: MMP-14 binding antibodies were also tested in a model of melanoma metastasis. B16F1 cells were grown in culture, harvested at 85% confluence and inoculated at 5×10^5 cells/mouse in 100 μl saline by tail vein injection. Treatment started on Day 1, post inoculation, for 14 days. […] On day 15, animals were sacrificed and lungs taken, fixed, and analyzed for the number of metastases (nodules).

Row | Molecule | Cross reactivity: inhibition of MMP-7 activity (MMP-7) | joint swelling [1] | pro-MMP-2 activation by MMP-14 [2] | pro-MMP-9 expression [2] | number of lung melanoma tumors (nodules) [3]
1 | M0040-A06: human antibody (Fab, IgG) that binds and inhibits MMP-14; HC SEQ ID NO: 162, LC SEQ ID NO: 163 (antibody, V domains shown, Synthetically generated peptide) VH: EVQLLESGGGLVQPGGSLRLSCAASGFTFSYYGMYWVRQAPGKGLEWVSSISSSGGYTDYADSVKGRFTISRDNSKNTLYLQMNSLRAEDTAVYYCARRIKYYDIEGEGAFDIWGQGTMVTVSS VL: QDIVMTQTPPSLPVNPGEPASISCRSSQSLLHRNGYNYLDWYLQKPGQSPQLLIHLGSYRASGVPDRFSGSGSGTDFTLKISRVEAEDVGVYYCMQPLQTPFTFGPGTKVDIK | Y (Inhibition (Y) of activity ranged from approximately 50-80% of the reaction rate observed in the absence of antibody) | – | – | – | –
2 | M0038-F01: human antibody (Fab, IgG) that binds and inhibits MMP-14; HC SEQ ID NO: 156, LC SEQ ID NO: 157 (antibody, V domains shown, Synthetically generated peptide) VH: EVQLLESGGGLVQPGGSLRLSCAASGFTFSLYSMNWVRQAPGKGLEWVSSIYSSGGSTLYADSVKGRFTISRDNSKNTLYLQMNSLRAEDTAVYYCARGRAFDIWGQGTMVTVSS VL: QDIQMTQSPSSLSAFVGDKVTITCRASQSVGTYLNWYQQKAGKAPELLIYATSNLRSGVPSRFSGSGSGTDFTLTINTLQPEDFATYYCQQSYSIPRFTFGPGTKVDIK | – | did not have an effect | completely inhibits | No stimulation | substantially reduced the number of lung melanoma tumors
